In publication PMC6182170, “A protein–protein interaction underlies the molecular basis for substrate recognition by an adenosine-to-inosine RNA-editing enzyme”:

Target: T1, ADR-1 WT (Caenorhabditis elegans, UniProt Q9U3D6 1-964)
T1 sequence: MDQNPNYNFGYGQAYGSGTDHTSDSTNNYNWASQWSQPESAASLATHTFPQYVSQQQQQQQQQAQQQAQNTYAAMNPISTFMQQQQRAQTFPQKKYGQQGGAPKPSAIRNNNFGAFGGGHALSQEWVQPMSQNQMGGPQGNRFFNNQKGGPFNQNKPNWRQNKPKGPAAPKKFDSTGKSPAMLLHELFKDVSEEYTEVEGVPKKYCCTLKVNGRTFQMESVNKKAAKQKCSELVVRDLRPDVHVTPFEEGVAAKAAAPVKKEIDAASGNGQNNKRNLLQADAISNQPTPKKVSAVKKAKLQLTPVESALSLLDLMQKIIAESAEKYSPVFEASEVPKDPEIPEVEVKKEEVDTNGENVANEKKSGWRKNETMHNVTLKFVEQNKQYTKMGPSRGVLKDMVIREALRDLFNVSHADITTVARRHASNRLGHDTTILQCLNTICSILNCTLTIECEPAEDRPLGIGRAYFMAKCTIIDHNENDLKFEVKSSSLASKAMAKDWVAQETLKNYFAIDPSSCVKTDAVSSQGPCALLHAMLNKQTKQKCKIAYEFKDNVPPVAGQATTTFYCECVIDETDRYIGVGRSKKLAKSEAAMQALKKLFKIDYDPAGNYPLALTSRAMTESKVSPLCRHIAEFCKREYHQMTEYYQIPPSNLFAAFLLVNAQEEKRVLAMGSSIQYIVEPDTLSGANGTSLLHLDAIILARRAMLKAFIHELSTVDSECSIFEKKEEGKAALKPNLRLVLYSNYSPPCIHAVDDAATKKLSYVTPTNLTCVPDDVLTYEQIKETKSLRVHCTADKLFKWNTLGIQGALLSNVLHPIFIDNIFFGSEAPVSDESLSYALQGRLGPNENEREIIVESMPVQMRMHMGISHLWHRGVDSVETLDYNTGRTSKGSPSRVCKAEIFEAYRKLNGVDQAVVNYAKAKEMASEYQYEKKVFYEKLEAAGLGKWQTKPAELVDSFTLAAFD
Assay: EMSA; apparent Kd; EMSA: 20 pM dsRNA, 50 mM KCl, 10 mM Tris-HCl pH 8.0, 10% glycerol, 1 mM MgCl2, 0.5 mM DTT, on ice 30 min; native 6% gel, 0.5x TBE, 4 C
Conditions: protein: recombinant; tags: N-terminal 6xHis (TEV site); label: 5' 32P on ssRNAs (PNK); imperfect duplex; printed strands 45 and 46 nt

B1: lam-2 3'UTR 46 bp dsRNA (dsRNA)
RNA 1: AGACACACAUACAAAAUUUACAAAAAUUGUUAAUUGACAAAAUAC
RNA 2: GUGUUUUGCCAAUUAACGAUUUUUUGUAAAUUUUAUAUGUGUCUCU
B1 was tested, and the Kd was 1.75 ± 0.15 nM.
